The target of experiment [1] is MASP3 in Factor D depleted human plasma (human) (UniProt P48740). Put plainly: cell-based or functional assay.
A further experiment deals with human MASP3-His (human) (UniProt P48740). Put plainly: cell-based or functional assay.
Chain of human MASP3-His (human) (P48740 other isoform, or with tags, fused parts or gaps): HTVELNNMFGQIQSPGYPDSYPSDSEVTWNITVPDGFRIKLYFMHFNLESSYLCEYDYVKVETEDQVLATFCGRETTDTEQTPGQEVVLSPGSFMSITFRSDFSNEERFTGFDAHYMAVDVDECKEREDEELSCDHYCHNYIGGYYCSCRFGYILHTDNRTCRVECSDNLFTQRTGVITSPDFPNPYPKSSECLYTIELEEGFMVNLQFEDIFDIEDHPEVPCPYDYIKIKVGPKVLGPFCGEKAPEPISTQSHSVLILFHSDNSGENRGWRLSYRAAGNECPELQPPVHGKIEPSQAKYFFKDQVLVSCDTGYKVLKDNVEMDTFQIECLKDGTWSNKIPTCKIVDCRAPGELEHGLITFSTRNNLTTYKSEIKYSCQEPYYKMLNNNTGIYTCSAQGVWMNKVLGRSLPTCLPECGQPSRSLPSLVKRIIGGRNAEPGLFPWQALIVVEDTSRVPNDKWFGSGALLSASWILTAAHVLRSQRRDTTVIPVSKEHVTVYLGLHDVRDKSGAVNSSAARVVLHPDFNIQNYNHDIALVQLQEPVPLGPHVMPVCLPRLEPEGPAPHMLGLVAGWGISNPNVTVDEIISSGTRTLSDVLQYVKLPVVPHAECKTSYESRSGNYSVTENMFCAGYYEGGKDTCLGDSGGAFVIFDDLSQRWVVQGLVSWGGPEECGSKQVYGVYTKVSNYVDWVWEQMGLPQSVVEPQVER

Chain of MASP3 in Factor D depleted human plasma (human) (P48740 other isoform, or with tags, fused parts or gaps): as above

Consider OMS906 (antibody), for which, in experiment [1], the Inhibit Hemolysis IC50 (alternative pathway, rabbit or guinea pig red blood cells) was 13 nM and the Inhibit hemolysis IC50 (alternative pathway) amounted to 17.1 nM. Further, in the experiment with human MASP3-His (human), the IC50 of inhibition of MASP3 enzymatic activity (cleavage of fluorescent tripeptide Boc-Val-Pro-Arg-AMC) is 200 nM.

Source of the values: patent US20260265412A1.
